We go through one molecule from US6107104A, “Modulators of anchoring protein function” (ICOS Corporation, priority 1996, dated 2000).

This assay concerns PKC. The assay is described as follows: PKC activity assay with EGF receptor peptide substrate. The assay is classed as biochemical. The method, then: In order to asses the ability of these peptides to modulate PKC activity, the following assay was performed in the presence and absence of AKAP 79 peptide fragments. PKC [50 nM dissolved in 50 mM tris-HCl (pH 7.4), 5 mM MgCl2 1.2 mM CaCl2, 1 mM DTT, 1 mM EGTA and 100 μg/ml PS] was incubated with EGF receptor peptide substrate (5 μM) at 30° C. for five minutes. Phosphorylation reaction was initiated by addition of 100 μM ^32 P-ATP (500 cpm/pmol) and the reaction allowed to proceed for ten minutes at 30° C. Aliquots of reaction mixture were removed and spotted into P81 filter paper and the reaction terminated by washing the filter paper with excess 75 mM phosphoric acid (three washes for three minutes each). After a final wash in ethanol, the p81 filters were dried and radioactivity was measured by liquid scintillation counting.

B1: recombinant fragment to the first 75 amino acids of AKAP 79: recombinant fragment of AKAP 79, amino acids 1-75 (protein, UniProt P24588 1-75, looked up, fragment)
chain: METTISEIHVENKDEKRSAEGSPGAERQKEKASMLCFKRRKKAAKALKPKAGSEAADVARKCPQEAGASDQPEPT
Turning to B1, the “effect of incubation with CaM on inhibition of PKC” value (CaM 15 μM, excess Ca2+) is “prevented inhibition”. The IC50 (commonly the midpoint of a concentration-inhibition curve) (read-out: IC50 of inhibition of PKC activity) turned out to be 25 ± 5 nM.
